Experimental data from patent US20200289560A1 (RUPRECHT KARLS UNIVERSIT T HEIDELBERG, published 2020).

Target: T1, human pyruvate kinase M2 (PKM2) (human, UniProt P14618 1-531)
T1 construct: also called tetrameric PK M2; human PK M2
Experiment: ultrafiltration (Amicon 30k) of equimolar 2 µM human PK M2 and 2 µM human HMGB1, Western blot of filtrate and retentate
Description: Ultrafiltration of the PK M2-HMGB1 complex: equimolar amounts of HMGB1 and PKM2 were mixed in a final volume of 300 μl and filtrated (14000 g, 4° C.) to a final volume of 15 μl in an Amicon Ultra 0.5 ml 30k device (Merck-Millipore, Darmstadt, Germany). The retentate was adjusted to the original volume after centrifugation. Then filtrate and retentate were analyzed by Western Blot. For controls HMGB1 and PKM2 were also analyzed alone. Pure HMGB1 (2 μM) suited as a negative control.

T1 sequence (P14618 whole entry): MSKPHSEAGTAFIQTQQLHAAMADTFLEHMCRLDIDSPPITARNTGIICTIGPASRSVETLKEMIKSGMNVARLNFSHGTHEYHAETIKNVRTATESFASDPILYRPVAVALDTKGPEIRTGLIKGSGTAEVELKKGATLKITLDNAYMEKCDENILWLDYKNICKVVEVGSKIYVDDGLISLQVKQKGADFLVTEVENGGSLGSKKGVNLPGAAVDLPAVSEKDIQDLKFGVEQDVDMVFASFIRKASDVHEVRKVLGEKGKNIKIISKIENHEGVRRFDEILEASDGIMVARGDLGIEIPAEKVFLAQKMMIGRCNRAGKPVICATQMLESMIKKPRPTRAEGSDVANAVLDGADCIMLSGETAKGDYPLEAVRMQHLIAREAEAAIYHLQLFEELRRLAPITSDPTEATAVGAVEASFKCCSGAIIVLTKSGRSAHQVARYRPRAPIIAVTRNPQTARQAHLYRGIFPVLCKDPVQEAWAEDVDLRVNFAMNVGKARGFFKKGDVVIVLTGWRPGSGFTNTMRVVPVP

- binding result: binds
B1: recombinant human HMGB1 protein (High Mobility Group Box 1 polypeptide) (other)
chain: MGKGDPKKPRGKMSSYAFFVQTCREEHKKKHPDASVNFSEFSKKCSERWKTMSAKEKGKFEDMAKADKARYEREMKTYIPPKGETKKKFKDPNAPKRPPSAFFLFCSEYRPKIKGEHPGLSIGDVAKKLGEMWNNTAADDKQPYEKKAAKLKEKYEKDIAAYRAKGKPDAAKKGVVKAEKSKKKKEEEEDEEDEEDEEEEEDEEDEDEEEDDDDE
notes: also called rhHMGB1; 125I-labelled HMGB1
